Measured values taken from paper PMC4433226.

Tests used:
[1] = molecular target: T1, Ku70/Ku80 wild type;DNA-PKcs (human?;human (HeLa cells), UniProt P12956;P13010;P78527 1-609;1-732;1-4128, |); assay: ELISA; ELISA: 20 mM HEPES pH 7.5, 75 mM KCl, 10% glycerol, 0.005% Triton X-100, 2 mM DTT, room temperature, 1 h, 2 pmol DNA, 424 ng DNA-PKcs; EMSA: 20 ul, 500 fmol DNA, buffer as in earlier papers; settings: protein: recombinant;native; tags: His (Ku70);; copies: 1;1;1; label: 5' biotin on one end; blunt
Ku70/Ku80 wild type [2] = molecular target: T2, Ku70/Ku80 wild type (UniProt P12956;P13010 1-609;1-732); assay: EMSA; 1 and 2 Ku per DNA, preference for 2; ELISA: 20 mM HEPES pH 7.5, 75 mM KCl, 10% glycerol, 0.005% Triton X-100, 2 mM DTT, room temperature, 1 h, 2 pmol DNA, 424 ng DNA-PKcs; EMSA: 20 ul, 500 fmol DNA, buffer as in earlier papers; settings: protein: recombinant; tags: His (Ku70); copies: 1;1; blunt
T2 sequence (P12956 whole entry, chain 1 of 2): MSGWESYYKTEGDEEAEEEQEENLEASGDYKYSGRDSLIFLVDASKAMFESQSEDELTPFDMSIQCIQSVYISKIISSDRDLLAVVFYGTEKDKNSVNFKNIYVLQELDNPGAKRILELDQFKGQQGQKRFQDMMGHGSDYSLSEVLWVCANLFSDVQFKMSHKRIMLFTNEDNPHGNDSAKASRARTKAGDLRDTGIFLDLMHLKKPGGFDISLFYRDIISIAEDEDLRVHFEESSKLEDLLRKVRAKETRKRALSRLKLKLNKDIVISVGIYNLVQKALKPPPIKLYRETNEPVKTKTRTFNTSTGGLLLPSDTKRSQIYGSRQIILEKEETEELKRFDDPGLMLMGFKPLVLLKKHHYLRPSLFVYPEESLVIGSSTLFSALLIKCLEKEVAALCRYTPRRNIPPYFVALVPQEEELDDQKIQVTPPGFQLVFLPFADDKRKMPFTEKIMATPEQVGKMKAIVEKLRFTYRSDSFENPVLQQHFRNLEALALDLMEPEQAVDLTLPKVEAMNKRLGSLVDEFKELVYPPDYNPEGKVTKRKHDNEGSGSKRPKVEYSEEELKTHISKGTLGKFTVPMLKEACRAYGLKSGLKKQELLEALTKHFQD
T2 sequence (P13010 whole entry, chain 2 of 2): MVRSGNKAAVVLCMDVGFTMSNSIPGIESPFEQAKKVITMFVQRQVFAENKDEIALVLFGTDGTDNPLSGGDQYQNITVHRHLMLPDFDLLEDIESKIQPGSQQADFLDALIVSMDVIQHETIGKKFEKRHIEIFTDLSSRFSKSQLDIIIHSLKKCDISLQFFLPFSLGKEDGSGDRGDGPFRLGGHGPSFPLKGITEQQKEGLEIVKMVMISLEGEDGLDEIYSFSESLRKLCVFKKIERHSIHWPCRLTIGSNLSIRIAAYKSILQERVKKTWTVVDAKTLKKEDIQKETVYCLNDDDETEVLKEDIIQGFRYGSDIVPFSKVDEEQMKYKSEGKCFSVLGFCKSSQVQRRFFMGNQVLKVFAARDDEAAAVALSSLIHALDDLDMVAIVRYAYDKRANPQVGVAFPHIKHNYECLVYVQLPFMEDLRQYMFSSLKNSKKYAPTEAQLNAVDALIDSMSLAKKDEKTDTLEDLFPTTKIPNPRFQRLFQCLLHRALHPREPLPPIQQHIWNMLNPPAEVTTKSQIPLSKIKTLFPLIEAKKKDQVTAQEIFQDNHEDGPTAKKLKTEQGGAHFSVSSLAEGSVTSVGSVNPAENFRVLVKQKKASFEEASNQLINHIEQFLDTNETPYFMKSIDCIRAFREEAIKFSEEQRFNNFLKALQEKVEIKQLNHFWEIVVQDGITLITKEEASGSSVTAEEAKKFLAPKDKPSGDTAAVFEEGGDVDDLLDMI

[3] = molecular target: T1, Ku70/Ku80 wild type;DNA-PKcs; assay: ELISA; more than double the 30bp and 400bp recruitment (Fig 4C); ELISA: 20 mM HEPES pH 7.5, 75 mM KCl, 10% glycerol, 0.005% Triton X-100, 2 mM DTT, room temperature, 1 h, 2 pmol DNA, 424 ng DNA-PKcs; EMSA: 20 ul, 500 fmol DNA, buffer as in earlier papers; settings: protein: recombinant;native; tags: His (Ku70);; copies: 1;1;1; label: 5' biotin on one end; blunt
Ku70/Ku80 wild type [4] = molecular target: T2, Ku70/Ku80 wild type; assay: EMSA; primarily 1:1 Ku:DNA; ELISA: 20 mM HEPES pH 7.5, 75 mM KCl, 10% glycerol, 0.005% Triton X-100, 2 mM DTT, room temperature, 1 h, 2 pmol DNA, 424 ng DNA-PKcs; EMSA: 20 ul, 500 fmol DNA, buffer as in earlier papers; settings: protein: recombinant; tags: His (Ku70); copies: 1;1; blunt

B1: 30bp blunt, biotinylated (dsDNA)
DNA 1: CACTTCCAACAGAGGTGACACTGCCTTCAG
DNA 2: CTGAAGGCAGTGTCACCTCTGTTGGAAGTG
[1]
  binding signal: > 4 fold vs DNA-PKcs without Ku

B2: 60bp blunt (EMSA) (dsDNA)
DNA 1: CTTGACCAGTAGTCTAGCACGTGACGATTGCATGCGTCAAGTAAGATGCAGATACTTAAC
DNA 2: GTTAAGTATCTGCATCTTACTTGACGCATGCAATCGTCACGTGCTAGACTACTGGTCAAG
Ku70/Ku80 wild type [2]
  binding result: binds

B3: 60bp blunt, biotinylated (dsDNA)
DNA 1: CTTGACCAGTAGTCTAGCACGTGACGATTGCATGCGTCAAGTAAGATGCAGATACTTAAC
DNA 2: GTTAAGTATCTGCATCTTACTTGACGCATGCAATCGTCACGTGCTAGACTACTGGTCAAG
[3]
  binding signal: > 4 fold vs DNA-PKcs without Ku

B4: 30bp blunt (EMSA) (dsDNA)
DNA 1: CACTTCCAACAGAGGTGACACTGCCTTCAG
DNA 2: CTGAAGGCAGTGTCACCTCTGTTGGAAGTG
Ku70/Ku80 wild type [4]
  binding result: binds
